Entries after “also recorded” stand apart in the source; their conditions may differ.
Columns and labels:
FVIII deficient plasma = experiment: aPTT based one stage clotting assay in FVIII deficient plasma; type: biochemical, human; details: for clotting time: 50 ng FIXa
Summary of the method: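 Test samples preincubated 4 min with FVIII-deficient plasma and aPTT reagent (DAPTTIN or Pathromtin SL), optionally with 50 ng activated FIX; clotting started with 25 mM CaCl2. Read-out is clotting time from start to clot formation, set against FVIII, buffer or scrambled-peptide controls.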

factor IXa = target: T1, factor IXa (Bos taurus, UniProt P00741); experiment: Chromogenic FVIII assay (COATEST VIII:C/4) with the kit's FIXa/FX; type: biochemical, bovine; details: purified IgG (198/AC1/1 10 μg/ml) or unpurified IgM supernatant
T1 construct: purchased Chromogenix COATEST VIII:C/4
Procedure: In order to assay the FVIII-like activity of anti-FIXa antibodies secreted by hybridoma cells, the commercially available test-kit COATEST VIII:C/4® (Chromogenix) was employed. The assay was done essentially as described by the manufacturer with the following modifications:
To allow high throughput screening, the assay was downscaled to microtiter plate format. Briefly, 25 μl aliquots of hybridoma supernatants were transferred to microtiter plate (Costar, #3598) wells and warmed to 37° C. Chromogenic substrate (S-2222), synthetic thrombin inhibitor (I-2581), factor (F) IXa and FX were reconstituted in sterile water and FIXa/FX was mixed with phospholipids according to the supplier's protocol. Per reaction, 50 μl of the phospholipid/FIXa/FX solution were combined with 25 μl CaCl2 (25 mM) and 50 μl of the substrate/inhibitor cocktail. To start the reaction, 125 μl of the premix were added to the hybridoma supernatant in the microtiter plates and incubated at 37° C. Absorbency at 405 nm and 490 nm of the samples was read at various times (30 min to 12 h) against a reagent blank (MLW, cell culture medium instead of hybridoma supernatant) in a Labsystems iEMS Reader MF™ microtiter plate reader. FVIII-like activity of the samples was calculated by comparing the absorbency of the samples against the absorbency of a diluted FVIII reference standard (IMMUNO AG #5T4AR00) using GENESIS™ software.
Several anti-FIX/FIXa antibody producing hybridoma clones were subcloned up to four times and the resulting monoclonal hybridoma cell line used to produce monoclonal antibody containing supernatant. IgG isotype antibodies derived from these supernatants were purified over affinity columns and dialyzed against TBS (see above). IgM antibodies were used as unpurified supernatant fractions. […] Absorbance at 405 nm and 490 nm of the samples was read at various times (5 min to 6 h) against a reagent blank (cell culture medium instead of hybridoma supernatant) in a Labsystems iEMS Reader MF™ microtiter plate reader using GENESIS™ software. […]

FVIII inhibitor plasma = experiment: aPTT based one stage clotting assay in FVIII inhibitor plasma; type: biochemical; details: inhibitor potency 400 BU/ml, 50 ng activated FIXa
Procedure: […] […] […] After a 4 minute incubation, the reaction was started by the addition of 100 μl CaCl2 (25 mM). To ensure equal conditions, the experiments employing FVIII deficient plasma and FVIII inhibitor plasma were done side by side.
To assay for the procoagulant activity of peptide A1/3 in FVIII inhibitor plasma the following experiment was carried out. We performed a standard aPTT based one stage clotting assay, but instead of FVIII deficient plasma we employed FVIII inhibitor plasma.

FIX/FIXa = experiment: Western Blot and ELISA reactivity with FIX/FIXa; type: binding
Procedure: Factor IX and the two activated forms of FIX, FIXaα and FIXaβ (FIX/FIXa(α,β)) were diluted in TBS (25 mM Tris HCl, 150 mM NaCl, pH 7.5) to a final concentration of 2 μg/ml. Nunc Maxisorp ELISA plates were coated with 100 μl FIX/FIXa(α,β) solution according to standard procedures (4° C., overnight) and washed several times with TBST (TBS, 0.1% (v/v) Tween 20). 50 μl hybridoma supernatant was diluted 1:1 with 50 μl TBST/2% BSA and added to the coated ELISA plate. After an incubation period of 2 h at room temperature (RT), plates were washed 4 times with TBST and incubated (2 h, RT) with 100 μl/well of a 1:25000 dilution (in TBST/1% BSA) of an anti-mouse IgG (Fc-specific) peroxidase conjugated antibody (Sigma, #A-0168). Wells were washed 5 times with TBST and finally stained with 100 μl freshly prepared staining solution (10 ml 50 mM sodium citrate, pH 5 supplemented with 100 μl OPD (60 mg OPD/ml) and 10 μl 30% H2O2). The reaction was stopped by the addition of […] H2SO4 and the optical density recorded at 492 nm and 620 nm in a Labsystems iEMS Reader MF™ microtiter plate reader employing GENESIS™ software. […]

T1 sequence (P00741 47-192 limits assumed): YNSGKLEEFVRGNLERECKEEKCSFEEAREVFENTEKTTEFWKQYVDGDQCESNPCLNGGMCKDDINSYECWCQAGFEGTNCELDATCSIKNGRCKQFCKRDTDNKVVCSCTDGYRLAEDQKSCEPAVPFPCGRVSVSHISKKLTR
T1 sequence (P00741 228-462 limits assumed): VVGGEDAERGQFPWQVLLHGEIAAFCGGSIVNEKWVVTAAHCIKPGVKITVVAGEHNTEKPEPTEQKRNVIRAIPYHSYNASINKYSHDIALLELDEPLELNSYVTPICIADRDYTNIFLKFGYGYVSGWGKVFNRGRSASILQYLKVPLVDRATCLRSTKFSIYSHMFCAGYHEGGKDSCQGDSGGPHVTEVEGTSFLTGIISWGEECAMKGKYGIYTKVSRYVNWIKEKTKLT

B1: 193/AD3: anti-FIX/FIXa monoclonal antibody, IgG isotype; scFv SEQ. ID. NOs. 81 and 82 (protein)
scFv: EVKLVESGPELKKPGETVKISCKASGYIFTNYGMNWVKQAPGKGLKWMGWINTYTGEPTYADDFKGRFAFSLETSASTAYLQINNLKNEDTATYFCALYGNSPKGFAYWGQGTLVTVSAGGGGSGGRASGGGGSDIQMTQSPKFLLVSAGDRVTITCKASQSVSNDVAWYQQKPGQSPKLLMYYASNRYTGVPDRFTGSGYGTDFTFTISTVQAEDLAVYFCQQDYGSPPTFGGGTKLEIKR
modifications: scFv derived from IgG; Description of Artificial Sequence:scFv from hybridoma cell line 193/AD3
notes: anti-FIX/FIXa monoclonal antibody, IgG isotype; ID; NOs; 81 and 82
- clotting time (FVIII deficient plasma; 0.23 μg AB): 99.3 s
- clotting time (FVIII deficient plasma; 0.34 μg AB): 97.1 s
- clotting time (FVIII deficient plasma; 0.45 μg AB): 98.1 s
- clotting time (FVIII deficient plasma; 0.9 μg AB): 94.4 s
- clotting time (FVIII deficient plasma; 1.35 μg AB): 91.4 s
- clotting time (FVIII deficient plasma; 1.8 μg AB): 93.7 s
- clotting time (FVIII deficient plasma; 2.25 μg AB): 93.1 s
- clotting time (FVIII deficient plasma; 4.5 μg AB): 95.6 s
- clotting time (FVIII deficient plasma; 9 μg AB): 101.6 s
- procoagulant activity (FVIII deficient plasma; one-stage clotting assay in the presence of FIXa): procoagulant
- reduction of the clotting time (FVIII deficient plasma; various amounts of antibody, 50 ng activated FIX): clear dose-dependent reduction of the clotting time; also recorded: reduction in the coagulation time
- time course of FVIII-like activity (chromogenic substrate cleavage, OD 405 nm) (factor IXa): give rise to chromogenic substrate cleavage; also recorded: gave rise to chromogenic substrate cleavage
- reduction of the clotting time (FVIII inhibitor plasma): clear dose-dependent reduction of the clotting time

B2: #8860: irrelevant monoclonal antibody, negative control (protein)
chain 1: EVQLQQSGPELVKPGASVKISCKASGYAFSSSWMNWVKQRPGQGLEWIGRIYPGNGDTNYNGKFKGKATLTADKSSSTAYMQLSSLTSVDSAVYFCADGNVYYYAMDYWGQGTSVTVSS
chain 2: QIVLTQSPASLAVSLGQRATISCRASKSVSTSGYSYMHWYQQKPGQPPKLLIYLASNLESGVPARFSGSGSGTDFTLNIHPVEEEDAATYYCQHSRELPRTFGGGTKLEIKR
- reactivity with FIX/FIXa (FIX/FIXa): does not react with FIX/FIXa
